Laboratory results published in patent US20180214548A1 (SHANGHAI YUNYI HEALTHCARE AND TECHNOLOGY, published 2018).
Where two headings read alike, the source gives them in different places.

Columns and labels:
B7-1 = target: T1, B7-1 (human, UniProt P33681 35-242); assay: ELISA on coated protein (Table 22)
T1 sequence (looked up): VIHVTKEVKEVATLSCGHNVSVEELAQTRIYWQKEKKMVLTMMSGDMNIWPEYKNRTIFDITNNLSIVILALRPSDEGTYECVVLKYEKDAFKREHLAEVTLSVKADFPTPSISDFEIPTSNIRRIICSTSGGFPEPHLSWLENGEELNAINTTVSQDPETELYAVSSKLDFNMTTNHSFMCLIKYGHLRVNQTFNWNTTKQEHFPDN

ICOS [1] = target: T2, ICOS (human, UniProt Q9Y6W8 21-140, limits assumed); assay: ELISA on coated protein (Table 22)
T2 sequence (looked up): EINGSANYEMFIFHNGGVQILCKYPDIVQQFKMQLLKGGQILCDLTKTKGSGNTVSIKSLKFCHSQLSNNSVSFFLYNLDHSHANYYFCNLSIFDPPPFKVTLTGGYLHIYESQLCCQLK

CTLA4 [2] = target: T3, CTLA4 (human, UniProt P16410 37-162, limits assumed); assay: ELISA on coated protein (Table 22)
T3 sequence (looked up): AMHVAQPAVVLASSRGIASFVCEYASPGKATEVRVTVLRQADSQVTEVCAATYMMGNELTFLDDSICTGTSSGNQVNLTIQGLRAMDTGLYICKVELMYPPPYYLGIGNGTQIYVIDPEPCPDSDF

[3] = target: T4, full length human PD-1 on cells (human, UniProt Q15116 25-288); assay: cell-based receptor ligand blocking assay (fully human antibodies), blocked ligand PD-L1
T4 construct: Also used here for PD-1 on human T cells/PBMC; also called CHO-K1-hPD-1; hPD-1

[4] = target: T5, human PD-1^ECD-hFc protein (Immunogen A) (human, UniProt Q15116 25-167); assay: protein-based receptor ligand blocking assay (fully human antibodies), blocked ligand PD-L1
T5 construct: Biotinylated for the Octet assay; also called PD-1-hFc; hPD-1^ECD-hFc; not shown: human IgG Fc fragment (hFc)
Method: Purified PD-1^ECD-hFc (Example 2) was diluted with PBS to a final concentration of 1.0 ug/mL, and 100 uL diluted PD-1^ECD-hFc were added to each well of a 96-well plate that was then sealed with plastic film and incubated at 4° C. overnight. The plate was washed twice with wash buffer (PBS+0.01% (v/v) Tween 20) and incubated with blocking buffer (PBS+[…]) at room temperature for 2 hours. The blocking buffer was aspirated, and 50 uL purified anti-PD-1 antibodies from Example 2 were added to each well of 96-well plate. […] The plate was washed three times with wash buffer (PBS+0.01% (v/v) Tween 20). 100 uL HRP-conjugated streptavidin (Sigma) were then added to each well and incubated at 37° C. for 2 hours. The plate was then washed three times with wash buffer, and 100 uL TMB substrate were added to each well. After 30 minutes of incubation at room temperature, the reaction was stopped by adding 100 uL stop solution (0.1N HCl). The absorbance at OD450 nm was measured with an ELISA plate reader (384plus SpectraMax, Molecular Devices).
T5 sequence (Q15116 25-167): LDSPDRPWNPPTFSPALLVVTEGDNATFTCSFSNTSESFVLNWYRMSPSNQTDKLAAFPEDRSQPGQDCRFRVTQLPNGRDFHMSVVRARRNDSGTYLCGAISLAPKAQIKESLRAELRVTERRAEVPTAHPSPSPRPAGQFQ

[5] = target: T5, human PD-1^ECD-hFc protein (Immunogen A); assay: protein-based receptor ligand blocking assay (fully human antibodies), blocked ligand PD-L2
[6] = target: T6, cyno monkey PD-1^ECD-hFc protein (cyno monkey, UniProt B0LAJ3 25-167); assay: ELISA, coated cyno PD-1ECD-hFc
T6 construct: also called cyno PD-1^ECD-hFc; not shown: human IgG Fc fragment (hFc) and its junction to the ECD

[7] = target: T7, human PD-1^ECD-hFc protein (Immunogen A) (human, UniProt Q15116 25-167); assay: ELISA, coated human PD-1ECD-hFc
T7 construct: also called PD-1-hFc; hPD-1^ECD-hFc; not shown: human IgG Fc fragment (hFc)
T7 sequence (Q15116 25-167): as above

[8] = target: T8, human PD-1, full length, on cells (human, UniProt Q15116 25-288); assay: flow cytometry on CHO-K1-hPD-1 cells
T8 construct: whole, on cells; in the lymphocyte assays the natural PD-1 of human T cells/PBMCs; also called hPD-1; CHO-K1-hPD-1

[9] = target: T7, human PD-1^ECD-hFc protein (Immunogen A); assay: ELISA, coated protein, antibody concentration not given
CD28 [10] = target: CD28 (human, UniProt P10747 19-152); assay: as above
Target sequence in this assay (P10747 19-152 limits assumed): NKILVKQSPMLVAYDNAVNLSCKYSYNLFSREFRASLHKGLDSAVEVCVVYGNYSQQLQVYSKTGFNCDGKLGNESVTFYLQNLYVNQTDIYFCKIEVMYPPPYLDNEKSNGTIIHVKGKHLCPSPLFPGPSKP

B7.1 = target: T9, B7.1 (human, UniProt P33681 35-242); assay: as above
T9 sequence (looked up): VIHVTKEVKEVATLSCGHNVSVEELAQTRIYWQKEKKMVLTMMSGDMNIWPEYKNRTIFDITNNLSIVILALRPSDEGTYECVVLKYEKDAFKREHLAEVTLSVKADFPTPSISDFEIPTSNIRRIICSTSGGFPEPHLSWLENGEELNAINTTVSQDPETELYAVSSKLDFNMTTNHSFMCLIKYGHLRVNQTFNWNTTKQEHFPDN

ICOS [11] = target: T10, ICOS (human, UniProt Q9Y6W8 21-140, limits assumed); assay: as above
T10 sequence (looked up): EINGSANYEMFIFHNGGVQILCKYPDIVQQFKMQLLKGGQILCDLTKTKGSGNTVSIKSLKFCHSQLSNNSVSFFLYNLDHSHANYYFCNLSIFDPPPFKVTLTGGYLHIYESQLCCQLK

CTLA4 [12] = target: T11, CTLA4 (human, UniProt P16410 37-162, limits assumed); assay: as above
T11 sequence (looked up): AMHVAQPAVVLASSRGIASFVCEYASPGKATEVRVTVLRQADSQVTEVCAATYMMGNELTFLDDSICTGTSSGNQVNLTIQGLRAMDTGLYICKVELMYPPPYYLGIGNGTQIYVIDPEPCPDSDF

NC-Fc = target: T12, NC-Fc; assay: as above
T12 construct: seemingly a negative control Fc protein

CD28 [13] = target: CD28 (human, UniProt P10747 19-152); assay: ELISA on coated protein (Table 22)
Target sequence in this assay (P10747 19-152 limits assumed): as the sequence (P10747 19-152 limits assumed) above

[14] = target: T8, human PD-1, full length, on cells; assay: flow cytometry on activated human PBMCs (MFI)
[15] = target: T13, His-tagged human PD-1 ECD protein (human, UniProt Q15116 25-167); assay: SPR Biacore T200, antibody captured by anti-human Fc, His-tagged hPD-1 ECD as analyte
T13 construct: also called His-tagged hPD-1 ECD; His-tagged PD-1^ECD; not shown: His tag
Method: Anti-human Fc IgG was immobilized on flow cells 1 and 2: HBS-EP+(10 mM HEPES, 150 mM NaCl, 3 mM EDTA, 0.05% P20, pH 7.4) was used as running buffer, and the immobilization of anti-human Fc IgG was carried out using the immobilization wizard template. Flow cells 1 and 2 of a Series S CM5 sensor chip were activated with freshly-mixed 50 mmol/L NHS and 200 mmol/L EDC. 20 ug/mL of anti-human Fc IgG diluted in 10 mM NaAC (pH 4.5) was injected into the activated flow cells 1 and 2. The remaining active coupling sites were blocked with 1M ethanolamine.
Recombinant His-tagged hPD-1 ECD protein was diluted to 50 nM, followed by four 2-fold serial dilutions with HBS-EP+ buffer. […] KD measurements were carried out with HBS-EP+ as the running buffer. Each antibody was injected over the CM5 sensor flow cell 2 with a flow rate of 10 uL/min to reach response 230 RU. Prepared His-tagged hPD-1 ECD protein was then injected over flow cells 1 and 2, at a flow rate of 30 uL/min for 180 sec. Buffer flow was maintained for 400 seconds for dissociation measurements (30 uL/min). To remove the tested antibody from the surface, 10 mM glycine-HCl pH 1.5 was injected for 20 seconds (30 uL/min). Flow cell 1 was used as reference flow cell. The above steps were repeated for each concentration of serially-diluted His-tagged PD-1^ECD protein. The KD value for each antibody was evaluated using Biacore T200 evaluation software 1.0, and the data was fit with a 1:1 binding model.

[16] = target: T4, full length human PD-1 on cells; assay: cell-based receptor ligand blocking assay (fully human antibodies), blocked ligand PD-L1; remark: listed apart in the source
[17] = target: T5, human PD-1^ECD-hFc protein (Immunogen A); assay: protein-based receptor ligand blocking assay (fully human antibodies), blocked ligand PD-L2; remark: listed apart in the source

T8 sequence (Q15116 25-288): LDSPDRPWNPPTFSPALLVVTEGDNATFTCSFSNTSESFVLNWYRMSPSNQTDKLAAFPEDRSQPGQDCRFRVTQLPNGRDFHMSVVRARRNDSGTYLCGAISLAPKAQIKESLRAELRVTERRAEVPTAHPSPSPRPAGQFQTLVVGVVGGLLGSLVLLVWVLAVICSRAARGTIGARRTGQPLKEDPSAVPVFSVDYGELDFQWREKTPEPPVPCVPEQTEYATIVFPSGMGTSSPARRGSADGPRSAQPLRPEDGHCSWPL
T13 sequence (Q15116 25-167): as the sequence (Q15116 25-167) above
T6 sequence (B0LAJ3 entry or part of it limits assumed): as the sequence (Q15116 25-167) above, with D2E, P10A, V19L, T35A, Q75R counted along it
T4 sequence (Q15116 25-288 limits assumed): as the sequence (Q15116 25-288) above

binding result (B7-1)	binding result (ICOS [1])	binding result (CTLA4 [2])	IC50 (read off the curve) [4] [nM]	OD450 nm at 0 nM [6] [OD450]	OD450 nm at 0.0001 nM [6] [OD450]	OD450 nm at 0.001 nM [6] [OD450]	OD450 nm at 0.01 nM [6] [OD450]	OD450 nm at 0.1 nM [6] [OD450]	OD450 nm at 1 nM [6] [OD450]	OD450 nm at 10 nM [6] [OD450]	OD450 nm at 100 nM [6] [OD450]	OD450 nm at 0 nM [7] [OD450]	OD450 nm at 0.0001 nM [7] [OD450]	OD450 nm at 0.001 nM [7] [OD450]	OD450 nm at 0.01 nM [7] [OD450]	OD450 nm at 0.1 nM [7] [OD450]	OD450 nm at 1 nM [7] [OD450]	OD450 nm at 10 nM [7] [OD450]	OD450 nm at 100 nM [7] [OD450]	further results	Binder
no binding	no binding	no binding	~1																	IC50 (read off the curve) [3]: ~5 nM; IC50 (read off the curve) [5]: ~1 nM	fully human anti-PD-1 antibody 21G8F11 (antibody, human IgG4 S228P, kappa, V domains shown, also called 21G8F11 (fully human, IgG4 S228P / kappa)) VH: EVQLLESGGGLAQPGGSLRLSCAASGFSFNTYLMHWVRQAPGKGLEWVSAISGGGGNTYYADSVKGRFTISRDNSKNTLYLQMNSLRAEDTAVYYCAKENRIPVAPFDYWGQGTLVTVSS VL: DIQMTQSPSTLSASVGDRVTITCRASQSISTWLAWYQQKPGKAPKLLIYKASSLESGVPSRFSGSGSGTEFTLTISSLQPDDLATYYCQQYNSFSWTFGQGTKVEIKR
				0.19	0.15	0.22	0.51	2.39	2.99	3.02	3	0.18	0.16	0.26	0.58	2.62	3.03	3.02	3.03	MFI at 0 nM [8]: 48.8 MFI; MFI at 0.01 nM [8]: 1020 MFI; OD450 nm [9]: 2.7 OD450; OD450 nm (CD28 [10]): 0.27 OD450; OD450 nm (B7.1): 0.25 OD450; OD450 nm (ICOS [11]): 0.16 OD450; OD450 nm (CTLA4 [12]): 0.09 OD450; OD450 nm (NC-Fc): 0.21 OD450	fully human anti-PD-1 antibody 21G8F11 (antibody, human IgG4 S228P, kappa, V domains shown) VH: EVQLLESGGGLAQPGGSLRLSCAASGFSFNTYLMHWVRQAPGKGLEWVSAISGGGGNTYYADSVKGRFTISRDNSKNTLYLQMNSLRAEDTAVYYCAKENRIPVAPFDYWGQGTLVTVSS VL: DIQMTQSPSTLSASVGDRVTITCRASQSISTWLAWYQQKPGKAPKLLIYKASSLESGVPSRFSGSGSGTEFTLTISSLQPDDLATYYCQQYNSFSWTFGQGTKVEIKR
no binding	no binding	no binding																		binding result (CD28 [13]): no binding	fully human anti-PD-1 antibody 223G6B5 (antibody, human IgG4, V domains shown, also called 223G6B5 (fully human, IgG4 S228P / kappa)) VH: QVQLQESGPGLVKPSETLSLTCAVSGHSIRGSYFWGWIRQPPGRGLEWIGSIYHSGSTYTNPSLKSRATISVDTSKNQFSLKLNSVTAADTAVYYCARDLDIATTRDYWGQGTLVTVSS VL: DIQLTQSPSFLSASVGDRVTIICRASQGINNYLAWYQQKPGKAPKLLIYAASTLQSGVPSRFSGSGSGTEFTLTISSLQPEDFATYYCQQLDSYPRTFGQGTKVEIKR
				0.06	0.06	0.08	0.2	1.06	2.32	2.41	2.45	0.09	0.1	0.12	0.28	1.34	2.47	2.44	2.58	MFI at 0 nM [8]: 4.1 MFI; MFI at 0.01 nM [8]: 22.9 MFI; EC50 (read off the curve) [14]: ~0.2 nM; OD450 nm [9]: 3.01 OD450; OD450 nm (CD28 [10]): 0.1 OD450; OD450 nm (B7.1): 0.37 OD450; OD450 nm (ICOS [11]): 0.38 OD450; OD450 nm (CTLA4 [12]): 0.32 OD450; OD450 nm (NC-Fc): 0.41 OD450; Kd [15]: 0.936 nM; koff [15]: 9.35e-05 s⁻¹; kon [15]: 100000 M⁻¹ s⁻¹	fully human anti-PD-1 antibody 76G5B3 (antibody, human IgG4 S228P, kappa, V domains shown) VH: QVQLVESGGGVVQPGRSLRLSCAASGFTFSDYGFHWVRQAPGKGLEWVAVIWYDGSNEYYTDSVKGRFTISRDNSKNTLYLQMNSLRAEDTAMYFCVVNPFDYWGQGTLVTVSS VL: DIQMTQSPSSLSAFVGDRVTITCRASQGINHYLAWYQQKPGKAPNLLILAASTLLSGVPSRFGGRGSGTDFTLIISSLQPEDVATYYCQKYDSAPYTFGQGTKLEIKR
no binding	no binding	no binding	~2																	binding result (CD28 [13]): no binding; IC50 (read off the curve) [16]: ~0.3 µg/mL; IC50 (read off the curve) [17]: ~8 nM	fully human anti-PD-1 antibody 76G5B3 (antibody, human IgG4 S228P, kappa, V domains shown, also called 76G5B3 (fully human, IgG4 S228P / kappa)) VH: QVQLVESGGGVVQPGRSLRLSCAASGFTFSDYGFHWVRQAPGKGLEWVAVIWYDGSNEYYTDSVKGRFTISRDNSKNTLYLQMNSLRAEDTAMYFCVVNPFDYWGQGTLVTVSS VL: DIQMTQSPSSLSAFVGDRVTITCRASQGINHYLAWYQQKPGKAPNLLILAASTLLSGVPSRFGGRGSGTDFTLIISSLQPEDVATYYCQKYDSAPYTFGQGTKLEIKR
